Experiment [1] has as its target T1, biotin-Aβ1-20 (UniProt P05067 672-691, not fully specified; biotin (site not stated)).
T1 construct: domain: Aβ1-20; BIACORE antigen standing for monomeric Aβ peptide; also called biotinylated-Aβ1-20
T1 peptide (looked up): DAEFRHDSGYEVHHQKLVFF
Nature of the experiment: BIACORE. Background: Surface plasmon resonance follows binding to a sensor surface in real time, without labels.

The target in experiment [2] is biotinylated ADDL (bADDL) (UniProt P05067 672-713, N-terminal biotin). Put plainly: cell-based or functional assay.
Experiment [3] deals with T2, Aβ-derived diffusible ligands (ADDLs) (UniProt P05067 672-713).
T2 construct: domain: Aβ1-42; Soluble oligomers of Aβ1-42
Put plainly: ELISA; reference is binding of the same antibody to Aβ40 monomer. Here is the method: Affinity maturation was carried out to improve affinity and improve preferential binding to ADDL. To evaluate ADDL binding affinity of the humanized antibodies, BIACORE™ and titration ELISAs were conducted as disclosed herein. Briefly, Streptavidin-coated, 96-well microtiter plates (Sigma, St. Louis, Mo.) were coated with 10% biotinylated ADDL antigen (1 μM). A series of 2-fold dilutions of purified antibody, starting at 500 ng/mL was added to the ADDL captured plates and the plates were incubated for 2 hours at 25° C. […] A rabbit anti-goat IgG (H+L) HRP-conjugated (Bethyl Laboratories, Inc., Montgomery, Tex.) detection antibody was then added at a 1/2000 dilution in blocking solution and incubated for 1 hour at room temperature. After washing with PBS, HRP substrate, 3,3′,5′5-tetramethylbenzidine (ready-to-use TMB; Sigma, St. Louis, Mo.) was added and the reaction was stopped after 10 minutes with 0.5 N H₂SO₄. Absorbance at wavelength of 450 nm was read in a plate reader (model VICTOR V; Perkin Elmer, Boston, Mass.) and data were processed using EXCEL® work sheet.
(In general: In an ELISA, binding on a coated surface is turned into a signal by an enzyme label.)

B1: Hu20C2A3 (veneered version of clone A3, IgG2m4 isotype) (antibody, V domains shown)
VH: QVTLKESGPGLLKPTQTLTLTCTLSGFSLSTSGMGVGWFRQPPGKGLEWLAHIWWDDDKSYNPSLKSRLTISKDTSKNQVVLTITNVDPVDTATYYCARRQLGTRGTDAMDYWGQGTTVTVSS
VL: DVVMTQTPLSLPVTPGQPASISCRSSQSILHSNGNTYLEWYLQKPGQSPQLLIYKVSNRFSGVPDRFSGSGSGTDFTLKISRVEAEDVGVYYCLQTTRVPLTFGQGTKLEIKR
notes: to be checked against the listing; also called Hu20C2A3 produced in CHO; Hu20C2A3 produced in Pichia
For the molecule B1, the binding result in experiment [1] is recorded as “binds”. The “inhibition of bADDL binding to primary hippocampal neurons (alkaline phosphatase-streptavidin luminescence)” value in experiment [2] is 0.16 antibody to peptide ratio. Further, the “fold preference for ADDL binding versus Aβ40 monomer binding” value in experiment [3] amounted to 6 fold.

B2: clone A3 humanized by veneering, full IgG1 molecule (antibody, V domains shown)
VH: B1 VH
VL: DVVMTQTPLSLPVTPGQPASISCRSSQSILHSNGNTYLEWYLQKPGQSPQLLIYKVSNRFSGVPDRFSGSGSGTDFTLKISRVEAEDVGVYYCLQTTRVPLTFGQGTKLEIK
notes: also called Hu20C2A3 IgG1/kappa version
On to B2, for which the binding result in experiment [1] is “binds”.

Source of the values: US20070081998A1 (published 2007).
